From the domain aggregation screens of Martell et al. (2025)

Assay: soluble fraction after stress (log2 fold change); higher = more stays soluble; pooled small domains, quantitative proteomics
Conditions: stress: pH 4
Procedure, shortened: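 Custom libraries of small protein domains were pooled and exposed to pH 4. High-throughput quantitative proteomics then measured the log2 fold change in the amount of each domain still soluble, with higher values meaning more stayed soluble. This soluble-fraction fold change stands for aggregation propensity.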

Row | Sequence | soluble fraction (log2)
1 | HMQISMQNIASVKIDDLSDEQIQEFSTKYTAAGYSFPDVENVAKQKGMPSSEIEKLRQRVLTAQNTQEK | -0.346
2 | HMSDLFKYSPYKTLTEEQYKITYQIIERLKTDLSNGIPRISIIDGGAGTGKSILGIFLLKLLVDAQN | 0.321
3 | HMNVPLYIMIESAVEQRLLDGTYQVGKMIPTEFELMDEFSVSRETVRKAINLLVQRGKLEKKRGIGTFVAS | -0.26
4 | HMMQEIKLEVINNEELRIDNYINLAGIGLSRSYIQKLIKDGVILVNGKEVKSSYKVSLGDIISVQIPDPG | -0.209
5 | HMNHHEIIMKNIDTLLKEKNISISKLEKSLGISNGYISRLRNGKYNFSLDLLLKLAKKFKISIDYLLTDFD | -0.119
6 | HMEQKELAPLVPQEDGSVKLTNLAGYSMREVAAALEGGNLSLIPIGSGTSWKQDPAPGTVLQPGNTVTVYF | -0.209
7 | HMLNVNDVIARNVRAARERKKLTLDGAAELTGVSRSMLAQIEKGEVNPTISVVWKIANGFKVSFTSLVEPQ | -0.0104
8 | HMSVAPISYSQFESYLEQGKVASVAVGQDTIAGRFTAPVDGKSQFVTTIVNPQILDRIDKSGVEITGV | -0.175
9 | HMGEQYYVLIDNKQNGPHNINAIQKMIDQNIVNRQTLIWKKGMTDWGNIMDDKDLKEMVNKIP | 0.0559
10 | HMAPSLQISLKQAIITAQQQHPGSKALNADFDGARGTPRYVIETLLPTGELRELTIDAQSGQVMEDHPDR | 0.198
11 | HMISRKIKELRLSHDLTQKDLADYLNLTPKMVSFYELGQRVPPSDIILKLAEKFHVSTDYLLGNEDRP | -0.126
12 | HMHGTIHSAAYGGDIEAVKKFLAAGADVNANGGGRTPLDLAIQVKNTEIADLLRKHGGKTGDELKA | 0.398
13 | HMGASSLVGRSARVLQAVTDSDGRIKLAGETWSARLAAGATSTVGPGEEVRVIAIHGATAIVAPV | 0.0834
14 | HMVYVPTKAEVSQQFQDASKARFDERYAIVELADGRRTMAPLAFLTKADHAWLKQLASTSPLPKGK | 0.0133
15 | HMIGTPLSEWQKDAPEEITRDQIAELVILKFVTVEQLALASDAQLQRIGMGGVGLRERAKLYLNRK | -0.316
16 | HMDYAQAQRQAESAIALRPDVERLRLLLIYALQKQGKLREAEQAAADAIKSGLDTPALRQARANLRP | -0.205
17 | HMKINKQHLAFQIFGIRAKLGLSMEQFGELLGANKSSVSGWERGTVVPSSQRLKKIAELGKISLAELLTP | 0.276
18 | HMSIQELMNSKDLSSFKVEMLSDEDIAKYKGLLQNSGLTEAQAEQMALQRGLPSSELLKLKARLSGI | 0.0846
19 | HMREVGVPNLRGLTAEEAQIVLSNAGLNLRTEPIRRVHETITVGRIAEQDPMPDLTIRSQRSVTTWLSSGP | -0.268
20 | HMSMDPYTVLGVNKSSTDSQIKNAYKNLAKQHHPDRGGNEAKFKEISTAYEQIKTAEKRQQYDMSQQF | 0.389
21 | HMGDTIFINNNFYVKHIVEFGETIDIISKIYDVSVNKILETNETSTKLYSGQSLFIPININV | -1.99
22 | HMSELDASYLGQRVRYVSGFTETDPSEGLVEFRGSNWRARAEHPPLDHSGHWVIVKVESNTLWVEEKSN | 0.0761
23 | HMEDPRVTEIKNLQQDLAKKFKPTQGPASASDAVERVTAITTVMTKVAALPEDLRSEAMQPGKKM | -0.0985
24 | HMQYSIQVNKLLKAMREDVWYTANEILDLLKLKSKETLRKNYLDPAINNKLIILELPDKPTSRNQRYKI | -0.289
25 | HMQDGTILPGQKTAIRSLATSGGYDSQDLDTYLATTYGKSIDGLTRTEGADVIKAFQAGTVAK | 0.165
26 | HMTKRKNTEFRQQQIIEAAAKLIFKYGSEHLTVKRIAAQVGISEAAIYRHFTSKKSILSFLLSHIEE | -0.317
27 | HMTVSLTDVPFVPEILDRLERPELDVLLAILNGATNTFDLAAKTGRSRDELDEVLDRLTTLGLIER | -1.12
28 | HMVNTYILNNKEYPIEIIRKNNKNTYLRVKEGKIIVTTNYLTSSFTINKLIKDNTSFINKALLKEN | -0.0629

Row | Sequence | soluble fraction (log2)
29 | HMTDLNDTQIKILELLSADASLSAAKMAGQLGIAGRNVEANIKKLKEKGILIRHGSPKSGYWEIVN | 0.0328
30 | HMQSVSANSVQKQLADIIDGEDKTHPLSDRELTEKLVAQGVQISRRTVAKYREAMGIPGASGRKQ | 0.107
31 | HMSVDAMDEANERKMAKTFNMIVLGGLLKIRPIVSIESVIKALRKTLPERHHHLIPMNEEAIHIGMDII | -0.288
32 | HMTYKPAADFKPSDTSSLKEGMKVEHPKFGFGTVMKMEEVGTERKARINFADFGEKTLLLSFAKLKIHEN | -0.361
33 | HMIERLVEFVHTLRHSGVRVSMAEAMDAAEALRHTPITERQIFKTALQSVLVKEHQDIPAFDAAFERFFL | -0.728
34 | HMQLTVAVLIKNISKGQVISQGFLGFEARPERQIRGAYTNISEVLGRKAKSNIAVGTILKARHLDT | -0.49
35 | HMGIRAFDPEAFDERLKEFFSMIAPYKKLDTRSLQPHFPHHAKEVAERIRQLAEAGKIKVDGFYISEL | -0.0943
36 | HMKPAFTPYVVKVTADVLNVRSGPGTNYGITTKVKKGEAYTIVEEKNGWGKLKSGAGWISLEYTVK | -0.0552
37 | HMYFGNSLFQARKRSGLSQEGVAEKLGVSRQTVSKWETGETVPDIYQSKKMARLYGVSLDEL | 0.217
38 | HMDIMLLLYKNIKKRRLEIGMSQEELAQKTGYTSRSSIAKIEKGEVDLQLSKIKLFANALRVSQSELMG | -0.31
39 | HMGMDALIGRRVFVSEEILPGDTGGRMAVDGDSWRAISVGTASNIPAGTEVRIRGHQSLVLEVEP | -0.629
40 | HMEDPAVYYKILQIPPDASLSEIHRAFEKITSAWDPERYPHISSWKETSAKKLQEIRNAYEKLLILRETG | -0.00219
41 | HMSFFNGNQMKILRKKLQLNQEEMGEKLGIKKSYVSQLENNRKEITEEIDQILQELEQEYQDKM | -0.0582
42 | HMAVRNTKQKQLVLSLLKNSGRPMTAGEIYRLAVQQYPNIAKSTVYRNLENLVSRGEVSQGMHQNGESFYS | ≥ 0.43
43 | HMLLTHEEQIVKRGWQAPVGPFAILDSRAEAMHGDLEMLRGDREAAEQHFRRAWQIIGPIVEQ | 0.0572
44 | HMAPGVHVEALLPYTAGSLVSQIREYGNVDAVEYRDTGILLQADVDERLAAQIMDQALEDPV | -1.03
45 | HMQALDNNDALEEIIKKVITENPSQVTEFRNGKDSLMNFLVGKVMAASGGKANPKTLPETIEKIIK | 0.277
46 | HMGGGEYTVAKGDTLWKIAAQTLGSPTRYAEIYNLNKDVIEETARGRGKRDSSNGHWLFPGTALKIPGT | -0.234
47 | HMRKSNADALDGKTGIVKEEIKTGGYGYVGIDGDMWRSISESGEAIPAGTKVVVISHESIILTVKPA | ≥ 0.43
48 | HMYPGQILEIYLDEIKRLYLNGLSSADIFAEIKEGSIPSVKKAIRSMKDGSAPVKITEAEESTRIAPS | -0.785
49 | HMHWDIAQADAKQEVMDSSDDKEAIERIQANMFKDPKDHDQEYANKILNDMIDEIKEKGLEAMQHKFAQE | ≥ 0.43
50 | HMSDAVQLGLRLRAARERRGLSQQAVADALGLPRTAVTNMESGNRAVSTLELTKLAALYGQSTAFFLSP | 0.291
51 | HMISDQENDLNLKHLFDTADQNKDGLILESELKMLMTNLEINKETYDTVMKQITPAGMDYKTFSSL | -0.584
52 | HMATPEINNLGRLRNAINQSNVNWHQIIKRLQNEYPNNWRQILIAIDRHDLLFRYDVENYIKYG | -0.855
53 | HMLSTGQLIRYYRKRAGMTQAELAEEVEMSEPGIRNYELGNRTPSKAQLSAIARGLGIEPEALI | -0.0764
54 | HMEDMMKALLDVVRAQHTATEGSEERPFDINDIIDMALNITGRPEEPEEQQELSDTIQKLAESLAPDIFP | -0.596
55 | HMFDFMVLGQAIKKARESKEMTREQLAEILDVAPRHIQSIENEGQYPSFPLFIRLVTMFNISVDQY | -1.4
